This note sets out measurements from patent publication US20190145962A1 (TAO HEALTH LIFE PHARMA, published 2019).

T1 sequence (P05067 672-713): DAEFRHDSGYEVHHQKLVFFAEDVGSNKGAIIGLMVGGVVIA

One experiment has as its target T1, synthetic amylospheroids (synthetic ASPD) (UniProt P05067 672-713).
T1 construct: Spherical Abeta assembly of about 10 nm, made in vitro; In SPR it was solid-phased on the chip; In the imaging assay it was pre-incubated with peptide and added to neurons
Put plainly: ASPD pre-incubated with peptide, imaging of ASPD bound to rat hippocampal neurons. On the procedure: A liquid mixture of peptide and synthetic ASPD was incubated at 4° C. for 15 minutes to pretreat the ASPD and this liquid mixture was added to primary cultured rat hippocampal neurons cultured in a 96-well plate.
After incubation at 37° C. for 15 minutes in a CO₂ incubator, the wells were washed with PBS. Then, 2% paraformaldehyde (50 μl/well) was added thereto for immobilization performed for 20 minutes at 37° C. and further 4% paraformaldehyde (50 μl/well) was added thereto for immobilization performed for 20 minutes at 37° C. After washing and blocking, a primary antibody solution containing anti-ASPD antibody (mASD3) and anti-MAP2 antibody (trade name: sc-20172, manufactured by SANTACRUZ) was added, which then was left overnight. After washing, a secondary antibody solution containing Alexa Fluoro (trademark) 568 anti-mouse antibody (trade name: A11031, manufactured by life technologies), Alexa Fluoro (trademark) 488 anti-rabbit antibody (trade name: A11034, manufactured by life technologies), and DAPI (trade name: D523, manufactured by Dojindo) was added and then fluorescence microscopic observation was performed.
Subsequently, steps 4 to 5 were performed as follows: From the microscopic observation data, a calibration curve as shown in FIG. 2 was drawn, an approximate curve was created within a range where linearity was maintained, and then ED₅₀ was calculated. Using, as an indicator, “titer” that is defined by the ratio of ED₅₀ of the ASPD treated with peptide to ED₅₀ of the ASPD alone, the ASPD-binding inhibitory ability of peptide was evaluated.
In the case of HQNW (also called HQNW) [Peptide 07], the “ASPD-binding inhibitory ability (titer = ED50[ASPD+Peptide]/ED50[ASPD])” value (from here on “ASPD-binding inhibitory ability”) was determined as 1.5.

With HANW (also called HANW) [Peptide 10], the “ASPD-binding inhibitory ability” value amounted to 1.5. For the molecule HTNW (also called HTNW) [Peptide 09], the “ASPD-binding inhibitory ability” value was 1.5.

As for HFYW (also called HFYW) [Peptide 24], the “ASPD-binding inhibitory ability” value was determined as 1.5. The same measure, in the same setting: the figure for HWNW (also called HWNW) [Peptide 06] is 1.5; for HFIW (also called HFIW) [Peptide 14] it is 1.5. On the same count and under the same terms, the value for HFRW (also called HFRW) [Peptide 16] was 1.5; that for HYNW (also called HYNW) [Peptide 08] was 1.5; that for HHNW (also called HHNW) [Peptide 05] was 1.5. Consider HFAW (also called HFAW) [Peptide 20], for which the “ASPD-binding inhibitory ability” value is 1.5.

Regarding HFLW (also called HFLW) [Peptide 12], the “ASPD-binding inhibitory ability” value came out at 1.5. Still for that read-out and setting: the value for HFDW (also called HFDW) [Peptide 18] was 1.5; that for HFGW (also called HFGW) [Peptide 13] was 1.5. With HFWW (also called HFWW) [Peptide 15], the “ASPD-binding inhibitory ability” value was found to be 1.5.

With HFHW (also called HFHW) [Peptide 23], the “ASPD-binding inhibitory ability” value came to 1.5. Consider HFVW (also called HFVW) [Peptide 21], for which the “ASPD-binding inhibitory ability” value was 1.5. Still for that read-out and setting: the figure for HVNW (also called HVNW) [Peptide 11] is 1.5; for HDNW (also called HDNW) [Peptide 04] it is 1.5; for HKNW (also called HKNW) [Peptide 03] it is 1.5. On the same count and under the same terms, the value for HRNW (also called HRNW) [Peptide 02] was 1.5. Same read-out and setting: the value for HFMW (also called HFMW) [Peptide 17] was 1.5; that for HFKW (also called HFKW) [Peptide 22] was 1.5; that for HFEW (also called HFEW) [Peptide 19] was 1.5.

A further experiment has as its target T1, synthetic amylospheroids (synthetic …). Put plainly: SPR, synthetic ASPD solid-phased on the chip, peptide as analyte. On the procedure: Synthetic ASPD were solid-phased on a chip and each peptide shown in Table 3 below was allowed to flow as an analyte. Then the dissociation constant (KD) was determined by surface plasmon resonance (SPR).
Two peptides (HNNW (SEQ ID NO: 27) and HPNW (SEQ ID NO: 28)) that could not inhibit the binding of ASPD to neurons in the evaluation performed in section 1 above were used as negative controls.
Background: SPR reads the build-up and loss of mass on a sensor chip optically.
Turning to HNNW [HNNW (negative control peptide)], the binding result is “no binding”. As to HPNW [HPNW (negative control peptide)], the binding result is given as “no binding”.
